# Experimental data taken from the DeepSol protein solubility set.
# Test: soluble on expression in E. coli; label from the status in PepcDB or PDB records
row,Sequence,soluble on expression in E. coli
1,MSRVKNVVELLETKGVDALYLTKKTNVNYISGFPDEEAYAVICKDGNFLVTDSRYMELAEKVCKDFEIINWHNFDRSVAKAVKSVCDKVGIKKLGFERTNIVFDKYEELKNLIEKDNGELIPTENIVETLRYVKDKDEIKNTRKACEIADKALEELIPHIKAGVSEIELATKLEYFMKMNGAQNIGFETILISGAKTSLLHGKPSDKIIEKGDFVLIDYGAMYNGYISDTTRTFIVGGASEKQLEIYNLVKEAQNVGVENMKAGVHATIPDAEIRKVVKKYEDYYYQGIGHGVGRDVHEEPFIGNYGDKIIEEGCIITMEPGIYFPGWGGVRIEDTVLITKNGPERLTKFPKDLMILDK,not soluble
2,MTRYALLVRGINVGGKNKVVMAELRQELTNLGLEKVESYINSGNIFFTSIDSKAQLVEKLETFFAVHYPFIQSFSLLSLEDFEAELENLPAWWSRDLARKDFLFYTEGLDVDQVIATVESLELKDEVLYFGKLGIFWGKFSEESYSKTAYHKYLLKVPFYRHITIRNAKTFDKIGQMLKK,soluble
3,MGSDKIHHHHHHMPLPIRDLYTFFVVARAGAMQAAAHELGVTPGAISQRIRSIEDRYGKRLFVRSRDGVSLTASGKALWKEVKSAFAQIETSHNRHIGKDGKTILRISAAPTFAHSFLVSNLASFNEDHPGIRFNIETEDRLADLRSEPIDLAIRHGLGDYAGLRSEWLCAPELIVVGSPALLESQHPVKEPEDCLRFTLLPDETGLDWALWFEAHRVNAVAPSYGTAFKDGFLTVKAASRGQGLALINDIYVREELADGRLVQLLPGSWPTKFAYYAVALPETFDRPAVKAFVKWLCAACAVEQMHQK,not soluble
4,GPLGSGGLFFNALKNCKENFTVLQTIRQQQSTLNGSWVALLQTRNTLNRAGIRYMMDQNNIGSGSTVAELMESASISLKQAEKNWADYEALPRDPRQSTAAAAEIKRNYDIYHNALAELIQLLGAGKINEFFDQPTQGYQDGFEKQYVAYMEQNDRLHDIAVSDNNASYSHHHHHH,soluble
5,MSLTCGSGFGGRAFSCISACGPRPGRCCITAAPYRGISCYRGLTGGFGSHSVCGGFRAGSCGRSFGYRSGGVCGPSPPCITTVSVNESLLTPLNLEIDPNAQCVKQEEKEQIKSLNSRFAAFIDKVRFLEQQNKLLETKLQFYQNRECCQSNMEPLFEGYIETLRREAECVEADSGRLASELNHVQEVLEGYKKKYEEEVSLRATAENEFVALKKDVDCAYLRKSDLEANVEALIQEIDFLRRLYEEEIRILQSHISDTSVVVKLDNSRDLNMDCIIAEIKAQYDDIVTRSRAEAESWYRSKCEEMKATVIRHGETLRRTKEEINELNRMIQRLTAEVENAKCQNSKLEAAVAQSEQQGEAALSDARCKLAELEGALQKAKQDMACLIREYQEVMNSKLGLDIEIATYRRLLEGEEQRLCEGIGAVNVCVSSSRGGVVCGDLCVSGSRPVTGSVCSAPCNGNVAVSTGLCAPCGQLNTTCGGGSCGVGSCGISSLGVGSCGSSCRKCEGHHHHHH,not soluble
6,MKRLAVILITLALVSSMCITNSNEKRENMKNAKVLMVIAPKDFRDEELFEPMAVFESNGLKVDVVSTTKGECVGMLGNKITVEKTIYDVNPDDYVAIVIVGGIGSKEYLWNNTKLIELVKEFYNKNKVVSAICLSPVVLARAGILKGKKATVYPAPEAIEELKKAGAIYEDRGVVVDGNVITAKSPDYARLFGLEVLKAIEKNNE,soluble
7,MGLYDKYARLAGERLQFSDNGLTPFGTCIDEVYSATEGRIGNKKVILAGTNNYLGLTFNHDAISEGQAALAAQGTGTTGSRMANGSYAPHLALEKEIAEFFNRPTAIVFQPVIPLI,not soluble
8,MTTQAPTFTQPLQSVVVLEGSTATFEAHISGFPVPEVSWFRDGQVISTSTLPGVQISFSDGRAKLTIPAVTKANSGRYSLKATNGSGQATSTAELLVKAETAPPNFVQRLQSMTVRQGSQVRLQVRVTGIPTPVVKFYRDGAEIQSSLDFQISQEGDLYSLLIAEAYPEDSGTYSVNATNSVGRATSTAELLVQGETREEF,soluble
9,MGSDKIHHHHHHMATEAQVLEALQATMSAAYTRGLSAAKPQWNMIATEVPSAGAANFYGWLKDLPGIVEWTGARQLANLGKHGYSIENKTFESSISISRDNVDDDQIGQYSVIAQNYGDQVAYFPDTLAYPLLKAGFTTLCYDGQNFFDTDHPLATTPATTFSNVIGDPATDTGEPWFLIDDTKVLKPIVFQNRRPFVFKNMNPNEEYTWFNNKYAAGVDGRCNVGFSFPQLAIGSKAALTEANYAAAKKLLLKMKKVDGTPIGTRATKLVVGPDNEAAAKKLISRMLIEGGDTNIYYNDVEIVVSPLVTA,not soluble
10,MASSTISLQSISMTTLNNLSYSKQFHRSSLLGFSKSFQNFGISSNGPGSSSPTSFTPKKKLTPTRALSQNLGNTENPRPSKVQELSVYEINDLDRHSPKILKNAFSFRFGLGDLVPFTNKLYTGDLKKRVGITAGLCVVIEHVPEKNGDRFEATYSFYFGDYGHLSVQGPYLTYEDSFLAITGGAGIFEGAYGQVKLQQLVYPTKLFYTFYLKGLANDLPLELIGTPVPPSKDVEPAPEAKALKPSGVVSNFTN,soluble
11,MSKRILFIVGSFSEGSFNRQLAKKAETIIGDRAQVSYLSYDRVPFFNQDLETSVHPEVAHAREEVQEADAIWIFSPVYNYAIPGPVKNLLDWLSRSLDLSDPTGPSVLQDKIVTVSSVANGASPEEVFEDYRSLLPFIRMHLVDQLTGVPINSEAWSTGILKVSAEKLAELSAQADALLSAIENLEHHHHHH,soluble
12,MSLVERALQVGSPAPDFALPNAVGREVRLSSVTARGPSVITFYRGAWCPYCSLQLRAYQKILPQLKLLGGELLAISPQTPDKTQATLLKNFLEYEVLSDVGNRVAKRFGLVYPVGAEVRRIYLGFGVDLAEYNGDDSWELPLPGTFVIDRTMTVRLSFVDADYTRRLEPAAILDTLRAMRDVGGIPEGHHHHHH,not soluble
13,MGSDKIHHHHHHMRKDGHMQLQTIKVQGFKSIRELEFSLRPLNILIGANGSGKSNILGVFAFLRAMVERHLQMYVARAGGADRILHFGQKNTDSLQIELWFTKKNRRARGNIIANGYRCALVPAVGDRFVFAEERAFFHDRRYEKPVETLLGSGHEESLLPASYGRGIPADVFEAMQSWIVYHFHDTSDSARVKQTGDIDDNYWLRQDASNLTAYLYYIQQQAPDHYRNIVDVIRMVAPFFDDFVLRPSPFNPNKIKLEWRERGSDTYFDAYALSDGTLRFICLATLLLQPARKFPAIILLDEPEMGLHPYAIHVLAELLHSAATQTQVIVATQSVTLVNQFEPEDIVVVERQDGQPVCRRLTMEETETWLDGYGLGDLWEKNILGGRPLP,not soluble
14,MSLSGKLTYKELIIEVLKQTKKPLNVSEIWQKALEKGLDKKLSSIGQTPTQTIWNRLLTDKINFLKTSIKPTTFWLKERENELLKLDNKNEITNEKQEKNKFHERDLHPLLVKFLYENLDFNLNCKTIYHEQSKKGKGGEDKWNYPDIVGVYFPYDDYEKETITLLENIKQNSYKLFSFELKIALNFSNLKECYFQAVSNSSWANEGYLVVLQEIDSEVLSELRRLNQSFGIGVIKLEKDISNSQILISAKEKELDIQTLNMLINKNPNFKEFIDDINKQIKVGKEAKIQANFDEIKSDEEMEKYLKEKCILEKEGHHHHHH,soluble
15,MSLGPVENHSLPRTAAFFDLDKTVIAKSSTLTFSKSFYQGGLINRRAVLRTAYAQFVFLAGGADHDQMERMREYLSALCRGWNVRQVKEIVAETLHDLIDPIIYDEAASLIEEHHTAGRDVVIVSTSGAEVVEPIGELLGADRVVATRMIVGDDGCFTGEVEYYAYGPTKAEAIKELAASEGYDLARCYAYSDSATDLPMLESVGHPHAVNPDRALRREAIARQWPILDFHRPVRLKQRLPALSVPPREGHHHHHH,soluble
16,MEWLNEPPNWSHSDQKIIVTTSPKTDFWRITHYGFIRDSGHFYFDRVSTDFVVDVKIKGNYKDLYDQAGIMIRADEQHWIKTGIEYVDGVQNLSAVVTHNYSDWSFTPLLNPPNIFQVRVERCQEAIHIAYLDEYSRYVPFRMAYFPVALDIQVGIMCASPQGNGYEVIFEDYQLTKKGEKLSLEHHHHHH,not soluble
17,MFSIFMRIPDTAQVDAVFSGAYASIEQGLCYDEVNDWENTLAMYEKGLNLIVEGEKMKNARKSEMWKMLQESKSSVQHRINVLKKEGPKQPTPKKIKEAEESVENEKEAIRMQLDSFGSQEADLIYFLPEGVQLFTIDGEKTTAPTAPTSLQILRFPQPTDGGASSDTLAFMQVGPWAYPLMGAKTPVLRNEFGAYLVANPTPENPNMTVAILLSSDIERRLIEELHIVLREFTDFKEQAEPSTELSKEEKNRISTTISNFLIKGGQKIAWGVETTTVRVISRVEDNGEQYRTTLIATDKPMQVSPVIKGSVVYMHKGTKTVAKCTRYLLDKIGDMGVSMGKKLADSAQRRFGDGKSGGLVSGTIEILGGGITGVATVWMSLEDGSRHLCRSIANQTVQNVKLKYGDDASDTTHHALFAAGHGTLAAAQLWDLGPRSVAGRMARKAGIQMVSDLHHSRKGSRLDQEVPALELKKAV,not soluble
18,MGSDKIHHHHHHMKVYLSFDYELYFGAKSGSADACIIEPAKLLLEIAARHAVHLNFFIDSGYLLALEKYSKRYPSVAYEKQQVFKQIRELAAAGHDCQLHIHPHWEDSYYDGNGWKMNTNRYRLDHFPDAQIEQIVQSYYDITKDIAGKAPIAYRAGGWCMPPWNKVSAVFKKLGIWIDSTVYEKGYLQEGQIAFDFRKAPASDQWMFETDPVTEAPFGYFLELPISSISCSPLFFWNLYVRGRLNRSLHAGMGDGLPMAQPGTKKKLLTRYTQQALSCDGYYASLLTEEFYKRKAKGEDTMVVIGHPKAQSKFSVQALDTFISTVKDSAAFARYSDLQKD,not soluble
19,HHHHHHMSKRETFNETFLKAARGEKADHTPVWYMRQAGRSQPEYRKLKEKYGLFEITHQPELCAYVTRLPVEQYGVDAAILYKDIMTPLPSIGVDVEIKNGIGPVIDQPIRSLADIEKLGQIDPEQDVPYVLETIKLLVNEQLNVPLIGFSGAPFTLASYMTEGGPSKNYNKTKAFMYSMPDAWNLLMSKLADMIIVYVKAQIKAGAKAIQIFDSWVGALNQADYRTYIKPVMNRIFSELAKENVPLIMFGVGASHLAGDWHDLPLDVVGLDWRLGIDEARSKGITKTVQGNLDPSILLAPWEVIEQKTKEILDQGMESDGFIFNLGHGVFPDVSPEVLKKLTAFVHEYSQNKKMGQYS,soluble
20,MKDVILVIYSLIKMTKLRSCPLDDCNSSETYFQLDKHLKNEHDGLVLLMVDPQSQWRCEQMKRHVEYVDLMSATEIPHIAEVVHHQLPYIDTLIIFRCLS,soluble
21,MNSQQEWEHAYSLAERMYNKQAPTKREELNPTERVICSRFETIFDYDPFKDEYTFRDQALLFSTPVQPKCRTVAEADLHELKENTAKLNIPMPSYINICPIYALLPFTVLVFNNSQHAHKSLSDDMERAAATFRNPHESEIVPGAMYIFKQKHGKAYRCIILSEDGDMNIPDAERKYLVAFIDNVQIVSVKQKTLFVSDQFSIKDYPCALHCARIVGISAIRKSYVSGMNQFILNFYDAKEKRKAGMFAFIYKLDKEEKKLVIDYPSLLGTPKTTSTEIRTAVGHQIVASKDPVSLTFEQLNKKEVPEFKYLNSTDDDSDVELDLIEHDTKSVNPVASSHPTSSSMDDCPYGRASIARAKDYQLRLPPHSQKGLSSSSLLGSSYPVSNSIKNDITKQSESNRADATNISFSSFESTKSDISPQNNQNVEETSTPTVPPNSTIQENEEDEIMSPASIIRAPSRLAGSLNKVSIERPNTPLPTSSKNSEHNMSEISTYEASSISSHHLVPQSPSVPKTNYTVPVVQRPLTAPEKFRDPFGGPGSSDILNTKMLCSEKNIVPSNKFGRQISPGKDDKNENYQYSRMETKPQTLFAPVLDENQRQSSSSNMMCQIPDISSVAQVGFL,not soluble
22,PSRPVRPNNRCFSCNKKVGVMGFKCKCGSTFCGSHRYPEKHECSFDFKEVG,soluble
